In patent US20260217854A1:

Target: coil 2 domain of TMCC3 protein (UniProt Q9ULS5)
Test: ELISA on TMCC3 domain proteins

Kd: 0.01 nM
B1: mouse anti-TMCC3 8D6 monoclonal antibody (antibody, V domains shown)
VH: EIQLQQSGGELVKPGASVKISCTASGYSFTGYNMNWVKQSHGKSPEWIGNINPYYGSTSYNQKFKGKATLTVDKSSSTAYMQLNSLTSEDSAVYYCARWLGLGYAMDYWGQGTSVTVSS
VL: DIVLTQSPASLVVSLGQGATISCRASKSVSPSGYSSMHWYQQKPGQPPKLLIYLASNLESGVPARFSGSGSGTDFTLNIHPVEEEDAATYYCQHSRELPWTFGGGTKLEIKR
